According to patent US11634497B2, “Anti-CCR7 antibody drug conjugates” (NOVARTIS AG, priority 2017, dated 2023):

What was measured:
Assay type in all cases: cell-based
[1] = biological target: T1, hCCR7 (CHO-flpin-hCCR7 cells) (Homo sapiens, UniProt P32248); assay: β-Arrestin assay (PathHunter), antagonistic mode; settings: parental anti-CCR7 antibodies; hCCL19 as ligand; FIGS. 4B, 4C
T1 construct: host or cells: CHO (CHO-flpin), doxycycline-induced
T1 sequence (P32248 25-378): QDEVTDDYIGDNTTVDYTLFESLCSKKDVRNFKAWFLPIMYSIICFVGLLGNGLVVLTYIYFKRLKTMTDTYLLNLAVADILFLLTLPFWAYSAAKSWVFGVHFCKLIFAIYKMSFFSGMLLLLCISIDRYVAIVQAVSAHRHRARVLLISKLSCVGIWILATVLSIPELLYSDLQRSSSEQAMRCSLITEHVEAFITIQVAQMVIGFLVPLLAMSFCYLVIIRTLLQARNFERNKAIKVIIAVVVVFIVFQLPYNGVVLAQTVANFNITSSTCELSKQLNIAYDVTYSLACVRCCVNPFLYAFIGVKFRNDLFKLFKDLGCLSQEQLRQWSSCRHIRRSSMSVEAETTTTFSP
Procedure: To determine functionality of the anti-CCR7 antibodies, the β-Arrestin assay was performed using the PathHunter Flash Detection Kit from DiscoverX (#93-0247) either in agonistic mode for assessment of agonistic function or antagonistic mode for assessment of antagonistic function.
In the antagonistic mode, CHO-flpin-hCCR7 cells were seeded as described above. The next day, a 6× working solution (0.5 μM×6=3.0 μM) in 1× assay buffer was made for each test antibody or positive control MAB197 (R&D reference antibody; ligand antagonist) or negative control hIgG. 5 μl of the 6× working solution of antibodies or controls were added to each well, briefly spun down, and incubated at 37° C./5% CO2 for 30 min. During incubation, serial dilutions of a 6× working solution in 1× assay buffer were made for hCCL19. Following incubation, 5 μl of the 6× working solution of hCCL19 were added to each well, briefly spun down, and incubated at 37° C./5% CO2 for 90 min. Following incubation, 25 μl of detection reagent were added to each well, incubated at room temperature in the dark while shaking for 20 min. Then, the luminescence signal for enzyme activity was measured on the Envision machine and analyzed in Excel.

[2] = test system: SR786; assay: ADC cell viability assay (CellTiter-Glo, four days); settings: SR786 (Anaplastic large T cell lymphoma); CCR7 receptor levels ~28,000
Procedure: (§1) Cytotoxic effects after binding of directly conjugated antibodies (ADCs) with various payloads and their internalization into CCR7(+) cells were studied by assessing cell viability after four days of treatment. Three fold dilutions of the ADCs were added to 384-well bottom white plates in triplicates ([…]). […] Cells were harvested (adherent cells were detached with Accutase) and resuspended to approximately 2×10^4cells/ml. Cells were added to 384-well plates on top of the antibody (20 μl/well). The plates were incubated for four days at 37° C. and 5% CO2. Subsequently, 20 μl/well of CellTiter-Glo solution (CellTiter-Glo® Luminescent Cell Viability Assay; Promega, #G7571) was prepared and added to the cells. Cell viability was determined by the luminescence signal, which was measured after 10 min of incubation at 22° C. and 400 rpm with the Envision reader. IC50 values were calculated using the Graphpad Prism software.
(§2) To assess the ADCs for target-specificity and receptor-level dependency, ADC activity was tested across cell lines with different CCR7 receptor levels. […] Cell lines were chosen based on similar sensitivity to payload.

[3] = test system: DND-41; assay: as above; settings: DND-41 (T cell leukemia); CCR7 receptor levels 1,700
Procedure: as §1, §2

[4] = test system: CML-T1; assay: as above; settings: CML-T1 (T cell leukemia); CCR7 receptor levels ~29,000
Procedure: as §1, §2

[5] = test system: DEL; assay: as above; settings: DEL (ALCL); CCR7 receptor levels ~100,000; Table 19
Procedure: as §1

[6] = test system: KE97; assay: as above; settings: KE97 (Multiple Myeloma); CCR7 receptor levels ~100,000; Table 19
Procedure: as §1

[7] = test system: CCR7 and CD20 expressing JVM2 cells; assay: surrogate ADCC reporter assay; settings: JVM2 target cells and Jurkat-V158 effector cells
Procedure: Capacity of candidate antibodies to mediate ADCC was assessed using a surrogate ADCC reporter assay. CCR7 and CD20 expressing JVM2 cells were used as target cells. JVM2 cells were washed and re-suspended at 8×10^4 cells/ml cells/ml. Effector cells in this assay were a Jurkat cell line stably expressing CD16V158 and an NFAT dependent luciferase reporter (Jurkat-V158); expression of luciferase is a surrogate for canonical ADCC signaling through CD16. Briefly, Jurkat-V158 cells grown in suspension were spun down to remove spent media, the pellet was resuspended in assay media and adjusted to 1.6x10^6 cells/ml cells/mL. Mix equal volumes of effector and target cells to make a master mix of cells yielding a target to effector cell ratio of 1:5 or 1:20. A titration of antibody was diluted in assay media with a final top concentration of 50 ug/mL in the assay well. 12.5 uL of Ab solution was added to a 384 well round bottom plate and then 12.5 ul of the master cell mix was added. Antibody and cells were mixed well by pipetting and incubated for 4 hours at 37° C. in 5% CO2. Following incubation, 15 uL of Bright Glo substrate (Promega #G7572) was added to each well and shaken for 5 min at RT at 1050 rpm. Luminescent signal was read on the Envision plate reader (Perkin Elmer).

B1: 674J13 Parental: parental anti-CCR7 antibody derived from the hybridoma (antibody, V domains shown)
VH: DVQLQESGPDLVKPSQSLSLTCTVTGYSITSGYSWHWIRQFPGNKLEWMAHIHSSGSTNYNPSLKSRISIIRDTSKNLFFLQLNSVTTEDTATYYCARGGVQAFAYWGQGTLVTVSA
VL: QIVLTQSPAIMSASPGEKVTMTCSASSSVIYMHWYQQKSGTSPKRWIYDTSKLASGVPARFSGSGSGTSYSLTISSMEAEDAATYYCQQWSSNPLTFGAGTTLELK
For B1, which “functionality in β-Arrestin assay, antagonistic format” value [1] is on record?
Its value is “neutral, non-ligand blocking antibody”.

B2: 674J13.CysMab.DAPA.AURIX2 (conjugate)
heavy: DVQLQESGPGLVKPSQTLSLTCTVSGYSITSGYSWHWIRQHPGKGLEWMAHIHSSGSTNYNPSLKSRITISRDTSKNQFSLKLSSVTAADTAVYYCARGGVQAFAYWGQGTLVTVSSASTKGPSVFPLAPSSKSTSGGTAALGCLVKDYFPCPVTVSWNSGALTSGVHTFPAVLQSSGLYSLSSVVTVPSSSLGTQTYICNVNHKPSNTKVDKRVEPKSCDKTHTCPPCPAPELLGGPSVFLFPPKPKDTLMISRTPEVTCVVVAVSHEDPEVKFNWYVDGVEVHNAKTKPREEQYNSTYRVVSVLTVLHQDWLNGKEYKCKVSNKALAAPIEKTISKAKGQPREPQVYTLPPSREEMTKNQVSLTCLVKGFYPCDIAVEWESNGQPENNYKTTPPVLDSDGSFFLYSKLTVDKSRWQQGNVFSCSVMHEALHNHYTQKSLSLSPGK
light: EIVLTQSPATLSASPGERVTMSCSASSSVIYMHWYQQKPGQAPRRWIYDTSKLASGVPARFSGSGSGTDYTLTISSMEPEDAAVYYCQQWSSNPLTFGQGTKLEIKRTVAAPSVFIFPPSDEQLKSGTASVVCLLNNFYPREAKVQWKVDNALQSGNSQESVTEQDSKDSTYSLSSTLTLSKADYEKHKVYACEVTHQGLSSPVTKSFNRGEC
Which AMAX [2] does the source give for B2 here?
The AMAX was “(90% AMAX)”.

And the AMAX [3]?
The AMAX was under 20% AMAX.

What about the AMAX [4] of the same molecule?
Its AMAX is “(60% AMAX)”.

And the AMAX [5]?
Its AMAX is “(>95% AMAX)”.

What about the AMAX [6] of the same molecule?
The AMAX was “(>95% AMAX)”.

B3: 121G12 humanized CysMab: humanized anti-CCR7 IgG1 antibody with cysteine mutations, wild type Fc (antibody, V domains shown)
VH: EVQLVESGGGLVKPGGSLRLSCAASGFTFSTYAMSWVRQAPGKGLEWVATISDAGSYSYYPDNVKGRFTISRDNAKNSLYLQMNSLRAEDTAVYYCARRGSRYEEYYVMDYWGQGTTVTVSS
VL: EIVLTQSPATLSVSPGERVTLSCRASQSISNNLHWYQQKPGQAPRLLIKYASQSISGIPARFSGSGSGTDFTLTISSVEPEDFGVYFCQQSSSWLTFGQGTKLEIK
Which “ADCC activity; IC50 (nM)” value [7] does the source give for B3 here?
The value was “Yes, but insufficient curve fitting”.
